Reference: patent US12281162 (LANOVA MEDICINES DEVELOPMENT, dated 2025)

Legend:
[1] = target: T1, human G-protein-coupled receptor family C group 5 member D (GPRC5D) (human, UniProt Q9NZD1 1-345); assay: FACS, CHO-K1/GPRC5D
T1 construct: whole, on cells; also called human GPRC5D protein

[2] = target: T1, human G-protein-coupled receptor family …; assay: FACS, CHO-K1/human GPRC5D
[3] = target: T1, human G-protein-coupled receptor family …; assay: FACS, NCI-H929 cells
[4] = target: T1, human G-protein-coupled receptor family …; assay: FACS, CHO-K1/human GPRC5D, chimeric antibody
Protocol: CHO—K1 cells stably expressed human GPRC5D, were harvested from flasks. 100 µl of 1×10⁶ cells/ml of cells were incubated with primary chimeric antibodies in 3-fold serial dilutions starting from 300 nM to 0.001 nM for 30 minutes on ice. After being washed with 200 µl of FACS buffer twice, cells were incubated with secondary antibody for 30 minutes on ice. Cells were washed with 200 µl of FACS buffer twice and transferred to BD Falcon 5 ml tube and analyzed by FACS.

[5] = target: T1, human G-protein-coupled receptor family …; assay: FACS, CHO-K1/GPRC5D; remark: listed apart in the source
[6] = target: T1, human G-protein-coupled receptor family …; assay: FACS, CHO-K1/GPRC5D; remark: listed apart in the source

T1 sequence (Q9NZD1 whole entry): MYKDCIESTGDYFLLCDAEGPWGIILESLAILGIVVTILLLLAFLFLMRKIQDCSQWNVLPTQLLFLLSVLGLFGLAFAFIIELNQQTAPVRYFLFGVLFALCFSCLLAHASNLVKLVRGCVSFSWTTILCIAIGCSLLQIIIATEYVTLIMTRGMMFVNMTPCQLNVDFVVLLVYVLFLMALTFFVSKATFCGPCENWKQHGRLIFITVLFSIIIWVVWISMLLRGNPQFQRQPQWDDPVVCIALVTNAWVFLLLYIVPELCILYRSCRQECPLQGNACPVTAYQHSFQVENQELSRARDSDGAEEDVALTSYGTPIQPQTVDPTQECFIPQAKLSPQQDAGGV

Binder	Bottom [2]	LogEC50 [2]	Span [2]	Top [2]	Bottom [3]	LogEC50 [3]	Span [3]	Top [3]	Bottom [4]	LogEC50 [4]	Span [4]	Top [4]	Bottom [5]	LogEC50 [5]	Span [5]	Top [5]	further results
37B9C4-XI (antibody, V domains shown, also called 37B9C4 (chimeric); 37-XI) VH: EVNLEESGGGLVQPGGSMKLSCVASGFTFSDYWMNWVRQSPEKGLEWVAEIRLKSNNYATHYAESVKGRFTISRDDSKSSVYLQMNNLRAEDTGIYYCTRPLLWFRRYYAMDYWGQGTSVTVSS VL: DIQMTQTTSSLSASLGDRITISCSASQGISNYLNWYQQKPDGTVKLLIYYTSSLHSGVPSRFSGSGSGTDYSLTISNLEPADIATYYCQQYSKLPFTFGSGTKLEIK	793	0.388	113000	113000	338	-0.0562	13500	13800	2080	0.249	403000	405000	–	–	–	–	Bottom [1]: 11700; LogEC50 [1]: 0.236; Span [1]: 177000; Top [1]: 188000
6G10D9-XI (antibody, V domains shown, also called 6G10D9 (chimeric); 6G1009-X1) VH: QVQLQQSGAELARPGASVKMSCKASGYTFTTYTMHWVKQRPGQGLEWLGYINPSSGYTNYNQKFKDKATLTAGKSSSTAYMQLSSLTSEDSAVYYCASLRSRGYFDYWGQGTTLTVSS VL: DIVMTQSQTFMSTSVGDRVRITCKASQNVGTAVVWYQQKTGQSPRLLIYSASNRYTGVPDRFTGSGSGTDFTLTISNMQSEDLADFFCQQYSSYPYTFGGGTKLEIK	524	0.472	104000	104000	269	0.0515	13500	13800	6890	0.101	451000	458000	6860	0.299	115000	122000	–
6-H1L1 (antibody, V domains shown, humanized 6G10D9, VH v1 x VL v1) VH: QVQLVQSGAEVKKPGASVKVSCKASGYTFTTYTMHWVRQAPGQGLEWMGYINPSSGYTNYNQKFKDRVTMTRDTSTSTVYMELSSLRSEDTAVYYCSRLRSRGYFDYWGQGTLVTVSS VL: DIQLTQSPSFLSASVGDRVTITCKASQNVGTAVVWYQQKPGKAPKLLIYSASNRYTGVPSRFSGSGSGTEFTLTISSLQPEDFATYYCQQYSSYPYTFGQGTKLEIK	–	–	–	–	–	–	–	–	–	–	–	–	193	~3.1	~6200	~6400	–
6-H3L2 (antibody, V domains shown, humanized 6G10D9, VH v3 x VL v2) VH: QVQLVQSGAEVAKPGASVKVSCKASGYTFTTYTMHWVKQAPGQGLEWLGYINPSSGYTNYNQKFKDRVTMTADTSTSTVYMELSSLRSEDTAVYYCASLRSRGYFDYWGQGTLVTVSS VL: DIQLTQSPSFLSTSVGDRVTITCKASQNVGTAVVWYQQKPGKSPKLLIYSASNRYTGVPSRFSGSGSGTEFTLTISSLQPEDFATFYCQQYSSYPYTFGQGTKLEIK	–	–	–	–	–	–	–	–	–	–	–	–	68.9	2.24	47400	47500	–
6-H4L2 (antibody, V domains shown, humanized 6G10D9, VH v4 x VL v2) VH: QVQLVQSGAEVAKPGASVKMSCKASGYTFTTYTMHWVKQAPGQGLEWLGYINPSSGYTNYNQKFKDRVTLTADTSTSTVYMELSSLRSEDTAVYYCASLRSRGYFDYWGQGTLLTVSS VL: DIQLTQSPSFLSTSVGDRVTITCKASQNVGTAVVWYQQKPGKSPKLLIYSASNRYTGVPSRFSGSGSGTEFTLTISSLQPEDFATFYCQQYSSYPYTFGQGTKLEIK	–	–	–	–	–	–	–	–	–	–	–	–	9.56	1.98	39400	39400	–
6-H4L3 (antibody, V domains shown, humanized 6G10D9, VH v4 x VL v3) VH: QVQLVQSGAEVAKPGASVKMSCKASGYTFTTYTMHWVKQAPGQGLEWLGYINPSSGYTNYNQKFKDRVTLTADTSTSTVYMELSSLRSEDTAVYYCASLRSRGYFDYWGQGTLLTVSS VL: DIQMTQSPSFLSTSVGDRVTITCKASQNVGTAVVWYQQKPGKSPKLLIYSASNRYTGVPSRFSGSGSGTEFTLTISSMQPEDFATFFCQQYSSYPYTFGQGTKLEIK	109	1.42	146000	146000	80	1.61	28900	29000	–	–	–	–	2340	0.905	124000	126000	–
6-H3L1 (antibody, V domains shown, humanized 6G10D9, VH v3 x VL v1) VH: QVQLVQSGAEVAKPGASVKVSCKASGYTFTTYTMHWVKQAPGQGLEWLGYINPSSGYTNYNQKFKDRVTMTADTSTSTVYMELSSLRSEDTAVYYCASLRSRGYFDYWGQGTLVTVSS VL: DIQLTQSPSFLSASVGDRVTITCKASQNVGTAVVWYQQKPGKAPKLLIYSASNRYTGVPSRFSGSGSGTEFTLTISSLQPEDFATYYCQQYSSYPYTFGQGTKLEIK	–	–	–	–	–	–	–	–	–	–	–	–	-205	2.35	74500	74300	–
6-H4L1 (antibody, V domains shown, humanized 6G10D9, VH v4 x VL v1) VH: QVQLVQSGAEVAKPGASVKMSCKASGYTFTTYTMHWVKQAPGQGLEWLGYINPSSGYTNYNQKFKDRVTLTADTSTSTVYMELSSLRSEDTAVYYCASLRSRGYFDYWGQGTLLTVSS VL: DIQLTQSPSFLSASVGDRVTITCKASQNVGTAVVWYQQKPGKAPKLLIYSASNRYTGVPSRFSGSGSGTEFTLTISSLQPEDFATYYCQQYSSYPYTFGQGTKLEIK	–	–	–	–	–	–	–	–	–	–	–	–	61.5	1.65	50200	50300	–
6-H3L3 (antibody, V domains shown, humanized 6G10D9, VH v3 x VL v3) VH: QVQLVQSGAEVAKPGASVKVSCKASGYTFTTYTMHWVKQAPGQGLEWLGYINPSSGYTNYNQKFKDRVTMTADTSTSTVYMELSSLRSEDTAVYYCASLRSRGYFDYWGQGTLVTVSS VL: DIQMTQSPSFLSTSVGDRVTITCKASQNVGTAVVWYQQKPGKSPKLLIYSASNRYTGVPSRFSGSGSGTEFTLTISSMQPEDFATFFCQQYSSYPYTFGQGTKLEIK	172	1.41	134000	134000	130	1.47	21700	21900	–	–	–	–	3990	0.955	115000	119000	–
34-XI (antibody, V domains shown, also called 34D3H1 (chimeric)) VH: EVHLVESGGDLVKPGGSLKLSCAASGFTFSSYGMSWVRQTPDKRLEWVATISSGGSYTYYPDSVKGRFTISRDNAKNTLNLQMSSLKSEDTAMYYCARQGGDAMDYWGQGTSVTVSS VL: DIVLTQSPATLSVTPGDSVSLSCRASQSINNNLHWYQQKSHESPRLLIKYASQSISGIPSRFSGSGSGTDFTLSINSVETEDFGMYFCQQSNSRLTFGAGTKLELK	689	0.578	117000	118000	181	0.759	18000	18100	3450	0.521	504000	508000	–	–	–	–	Bottom [6]: 16500; LogEC50 [6]: 0.495; Span [6]: 176000; Top [6]: 192000
